We go through two molecules from patent US20220089736A1.

Test [1] concerns the target CD28 (Cluster of Differentiation 28) (human) (UniProt P10747). The test can be described thus: flow cytometry, binding to H929 cells (carry CD28 and BCMA; binding largely dependent upon CD28 arm).
Test [2] has the same target. The test can be described thus: flow cytometry, binding to human pan T cells; antibody without Vβ17 arm.

B1: VB28B9 (protein, part only; not given: scFvs, linkers, constant regions, not shown: another chain or arm of the molecule; a dimerising Fc or GST; small tags and cut ends)
VH: QVQLQQWGAGLLKPSETLSLTCAVYGGSFSGYYWNWIRQPPGKGLQWIGEINHSGTTNYNPSLKSRVTISVDTSKNQFSLKLSSLTAADTAVYYCARGEAVALYWGQGTLVTVSS
VL: EIVMTQSPATLSVSPGERATLSCRASQSVNSNLAWYQQKPGQAPRLLIYGASARATGIPARFSGSGSGTEFTLTISSLQSEDFAVYYCQQYYNWPLTFGGGTKVEIK
On to B1, for which the 50% effective concentration (EC50) (commonly the midpoint of the concentration-response curve) in test [1] is 0.14 µg/mL; in test [2] it was 0.15 µg/mL.

B2: VB28B7 (protein, part only; not given: scFvs, linkers, constant regions, not shown: another chain or arm of the molecule; a dimerising Fc or GST; small tags and cut ends)
VH: QVQLQQPGSELVRPGASVKLSCKASGYTFTSYWMHWVKQRHGQGLEWIGNIYPGSGRTNYDEKFKSKGTLTVDTSSRTAYMHLSSLTSEDSAVYYCTREHYGSNSHPMDYWGQGTSVTVSS
VL: DIQMTQSPASLSASVGETVTITCGASENIYGSLNWYQRKQGKSPQLLIYGATNLADGMSSRFSGSGSGRQFSLKISSLHPDDVATYYCQNLLSTPYTFGGGTKLELK
With B2, the EC50 in test [1] worked out at 0.1 µg/mL; in test [2] it was 0.06 µg/mL.
